{"source": "paper doi:10.1101/2024.10.05.616753", "binders": {"B1": {"name": "recombinant human C-reactive protein, P02741-1 19-224 (natural protein)", "chain": "QTDMSRKAFVFPKESDTSYVSLKAPLTKPLKAFTVCLHFYTELSSTRGYSIFSYATKRQDNEILIFWSKDIGYSFTVGGSEILFEVPEVTVAPVHICTSWESASGIVEFWVDGKPRVRKSLKKGYTVGAEASIILGQEQDSFGGNFEGSQSLVGDIGNVNMWDFVLSPDEINTIYLGGPFSPNVLNWRALKYEVQGEVFTKPQLWP"}}, "target": "T1, recombinant human C-reactive protein (human), P02741", "T1 chain": "B1 chain", "experiment": "cryo-EM structure", "conditions": "remark: other sources report otherwise", "data": [{"binder": "B1", "values": [{"measurement": "stoichiometry N", "value": 5}]}]}
